Experimental data reported in paper PMC9987799.

Assays:
Assay in all cases: two-hybrid; fluorescence-based mammalian two-hybrid: bait EDC4 (or a fragment) fused to the SV40 NLS forms nuclear dots in transfected HEp-2 cells; prey scored by immunofluorescence for co-localisation in nuclear dots 24 h after transfection; three transfections, at least 30 cells each, mean +/- …
[1] = target: NLS-EDC4 (full-length EDC4, amino acids 1–1437, fused to the NLS of SV40 T antigen)
[2] = target: NLS-EDC4 (full-length EDC4, amino acids 1–1437, fused to the NLS of SV40 T antigen); remark: listed apart in the source
[3] = target: GFP-NLS-EDC4(935–1437)

## NLS-LSm14a (SV40 T antigen NLS fused to LSm14a) (from UniProt Q8ND56 1-463) (natural protein)
[1]
  percent of cells with both proteins in the nucleus that had the two in nuclear dots: 86%

B1: Myc-PATL1(398–770) (domain or fragment)
chain: KDPYANLMLQREKDWVSKIQMMQLQSTDPYLDDFYYQNYFEKLEKLSAAEEIQGDGPKKERTKLITPQVAKLEHAYKPVQFEGSLGKLTVSSVNNPRKMIDAVVTSRSEDDETKEKQVRDKRRKTLVIIEKTYSLLLDVEDYERRYLLSLEEERPALMDDRKHKICSMYDNLRGKLPGQERPSDDHFVQIMCIRKGKRMVARILPFLSTEQAADILMTTARNLPFLIKKDAQDEVLPCLLSPFSLLLYHLPSVSITSLLRQLMNLPQSAATPALSNPHLTAVLQNKFGLSLLLILLSRGEDLQSSDPATESTQNNQWTEVMFMATRELLRIPQAALAKPISIPTNLVSLFSRYVDRQKLNLLETKLQLVQGIR
[2]
  percent of cells expressing both proteins with the two co-localized in nuclear dots: 97%

B2: CCHCR1-Myc (natural protein)
chain: MFPPSGSTGLIPPSHFQARPLSTLPRMAPTWLSDIPLVQPPGHQDVSERRLDTQRPQVTMWERDVSSDRQEPGRRGRSWGLEGSQALSQQAEVIVRQLQELRRLEEEVRLLRETSLQQKMRLEAQAMELEALARAEKAGRAEAEGLRAALAGAEVVRKNLEEGSQRELEEVQRLHQEQLSSLTQAHEEALSSLTSKAEGLEKSLSSLETRRAGEAKELAEAQREAELLRKQLSKTQEDLEAQVTLVENLRKYVGEQVPSEVHSQTWELERQKLLETMQHLQEDRDSLHATAELLQVRVQSLTHILALQEEELTRKVQPSDSLEPEFTRKCQSLLNRWREKVFALMVQLKAQELEHSDSVKQLKGQVASLQEKVTSQSQEQAILQRSLQDKAAEVEVERMGAKGLQLELSRAQEARRRWQQQTASAEEQLRLVVNAVSSSQIWLETTMAKVEGAAAQLPSLNNRLSYAVRKVHTIRGLIARKLALAQLRQESCPLPPPVTDVSLELQQLREERNRLDAELQLSARLIQQEVGRAREQGEAERQQLSKVAQQLEQELQQTQESLASLGLQLEVARQGQQESTEEAASLRQELTQQQELYGQALQEKVAEVETRLREQLSDTERRLNEARREHAKAVVSLRQIQRRAAQEKERSQELRRLQEEARKEEGQRLARRLQELERDKNLMLATLQQEGLLSRYKQQRLLTVLPSLLDKKKSVVSSPRPPECSASAPVAAAVPTRESIKGSLSVLLDDLQDLSEAISKEEAVCQGDNLDRCSSSNPQMSS
[3]
  percent of cells expressing both proteins with the two co-localized in nuclear dots: 96%

B3: mCh-NLS-XRN1(1232–1706) (domain or fragment)
chain: EFCNIWQSLQGSGKMQYFQPTIQEKGAVLPQEISQVNQHHKSGFNDNSVKYQQRKHDPHRKFKEECKSPKAECWSQKMSNKQPNSGIENFLASLNISKENEVQSSHHGEPPSEEHLSPQSFAMGTRMLKEILKIDGSNTVDHKNEIKQIANEIPVSSNRRDEYGLPSQPKQNKKLASYMNKPHSANEYHNVQSMDNMCWPAPSQIPPVSTPVTELSRICSLVGMPQPDFSFLRMPQTMTVCQVKLSNGLLVHGPQCHSENEAKEKAALFALQQLGSLGMNFPLPSQVFANYPSAVPPGTIPPAFPPPTGWDHYGSNYALGAANIMPSSSHLFGSMPWGPSVPVPGKPFHHTLYSGTMPMAGGIPGGVHNQFIPLQVTKKRVANKKNFENKEAQSSQATPVQTSQPDSSNIVKVSPRESSSASLKSSPIAQPASSFQVETASQGHSISHHKSTPISSSRRKSRKLAVNFGVSKPSE
[2]
  percent of cells expressing both proteins with both in nuclear dots: 94%
